Assay results as given in paper PMC5872055, “A Low-Cost Inkjet-Printed Aptamer-Based Electrochemical Biosensor for the Selective Detection of Lysozyme”.

Target: lysozyme (chicken (egg white), UniProt P00698 19-147)
Assay: electrochemical impedance spectroscopy (Rct decrease); 0-20 ug/mL lysozyme, 15 min; sensor LOD 90 ng/mL (not a Kd); EIS: proteins in 50 mM phosphate buffer (PBS) pH 7.4, 15 min incubation, rinse with PBS and DI water, then ferro-/ferricyanide read-out; SWV: 10 mM PBS; temperature not stated
Conditions: protein: commercial

lysozyme, sequence (P00698 19-147): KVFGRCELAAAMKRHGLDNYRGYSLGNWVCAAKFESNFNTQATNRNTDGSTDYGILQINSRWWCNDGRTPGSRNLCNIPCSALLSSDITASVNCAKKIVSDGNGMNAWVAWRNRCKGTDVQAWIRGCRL

B1: anti-lysozyme aptamer (30-mer) (ssDNA)
DNA: ATCAGGGCTAAAGAGTGCAGAGTTACTTAG
binding result: binds
